Source: patent US20100075897A1, “METHOD FOR S[…] BIOACTIVE PEPTIDES AND APPLICATION THEREOF” (JINAN UNIVERSITY, priority 2008, published 2010)
Ends that are not written are not given here.

Columns and labels:
[1] = target: T1, human serum albumin (human, UniProt P02768 25-609); assay: phage ELISA on plate-coated HSA, sample row, dilution column 3 of 12
T1 construct: Bought protein; coated on plates (ELISA) or coupled to a CM5 chip (SPR); also called HSA; human albumin

[2] = target: T1, human serum albumin; assay: SPR (BIAcore 3000), HSA on CM5 chip, polypeptide injected, 1:1 model
Description: Signal of conjugated channel subtracted by that of unconjugated channel of injected solution was calculated as the amount of bound peptides during a defined period, as shown in FIG. 4. PBS buffer containing 0.05% Tween-20 was used for dilution of all samples. SPR curve was evaluated by BIAcore™ kinetics evaluation software (Version 4.1). […] Kd was calculated from binding rate (kₒₙ) and dissociating rate (koff), i.e. dissociation constant.

T1 sequence (P02768 25-609 limits assumed): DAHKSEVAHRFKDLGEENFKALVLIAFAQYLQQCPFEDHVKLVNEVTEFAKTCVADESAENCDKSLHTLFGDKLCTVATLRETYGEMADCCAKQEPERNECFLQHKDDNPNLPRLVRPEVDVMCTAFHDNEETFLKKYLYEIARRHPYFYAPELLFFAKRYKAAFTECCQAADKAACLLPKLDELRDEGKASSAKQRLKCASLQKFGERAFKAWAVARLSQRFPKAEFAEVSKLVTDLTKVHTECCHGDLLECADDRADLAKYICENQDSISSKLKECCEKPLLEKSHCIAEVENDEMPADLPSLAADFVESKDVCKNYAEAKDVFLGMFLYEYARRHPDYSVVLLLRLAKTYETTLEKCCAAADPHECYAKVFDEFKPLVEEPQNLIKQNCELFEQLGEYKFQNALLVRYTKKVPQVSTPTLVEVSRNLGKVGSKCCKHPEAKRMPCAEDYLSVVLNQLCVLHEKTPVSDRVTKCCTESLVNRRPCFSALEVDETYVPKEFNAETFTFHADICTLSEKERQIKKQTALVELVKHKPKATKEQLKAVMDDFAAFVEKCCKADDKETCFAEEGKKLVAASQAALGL

Row | Binder | absorbance at 405 nm [1] | Kd [2] [µM]
1 | DICLPRWGCLWE (not fully specified (bridges); cysteine pairing not given here; also: displayed on M13 phage coat protein, Tested as whole phage particles, not as free peptide; not shown: not described) [Phage ID NO. 3 (M13 phage displaying the peptide of SEQ ID NO. 3, DICLPRWGCLWE)] | 0.1 | –
2 | LPWHLKYREPPR (not fully specified; also: fusion polypeptide ABP-LK-GLP, linker and GLP-1 part not given here, also called ABP-LK-GLP; not shown: rest of DP5.1 (any N-terminal Pro, linker, GLP-1 part) is printed nowhere) [DP5.1 fusion polypeptide] | – | 4.6
